Assay results as given in publication PMC10328077.

How the values were obtained:
[1] = target: NT647-labeled apoE2(1–165) fragment (human); experiment: MST; labelled apoE2(1-165) at 2.8 nM held constant, FH402H, FH402Y, FH1-4 or FH19-20 titrated; n = 3; Kd fit model of normalized (ΔFnorm) values; 150 mM KCl, 25 mM HEPES pH 7.5, 0.01% Tween 20, 0.01% NaN3
NT647-FH5-7 402Y (human) = NT647-FH5-7 402Y (human) (UniProt P08603); experiment: MST; NT647-FH5-7 402Y at 35 nM held constant, apoE2, apoE3 or apoE4 titrated; n = 3; Kd fit model of normalized (ΔFnorm) values; 150 mM KCl, 25 mM HEPES pH 7.5, 0.01% Tween 20, 0.01% NaN3
Sequence of NT647-FH5-7 402Y (human) (P08603 19-1231): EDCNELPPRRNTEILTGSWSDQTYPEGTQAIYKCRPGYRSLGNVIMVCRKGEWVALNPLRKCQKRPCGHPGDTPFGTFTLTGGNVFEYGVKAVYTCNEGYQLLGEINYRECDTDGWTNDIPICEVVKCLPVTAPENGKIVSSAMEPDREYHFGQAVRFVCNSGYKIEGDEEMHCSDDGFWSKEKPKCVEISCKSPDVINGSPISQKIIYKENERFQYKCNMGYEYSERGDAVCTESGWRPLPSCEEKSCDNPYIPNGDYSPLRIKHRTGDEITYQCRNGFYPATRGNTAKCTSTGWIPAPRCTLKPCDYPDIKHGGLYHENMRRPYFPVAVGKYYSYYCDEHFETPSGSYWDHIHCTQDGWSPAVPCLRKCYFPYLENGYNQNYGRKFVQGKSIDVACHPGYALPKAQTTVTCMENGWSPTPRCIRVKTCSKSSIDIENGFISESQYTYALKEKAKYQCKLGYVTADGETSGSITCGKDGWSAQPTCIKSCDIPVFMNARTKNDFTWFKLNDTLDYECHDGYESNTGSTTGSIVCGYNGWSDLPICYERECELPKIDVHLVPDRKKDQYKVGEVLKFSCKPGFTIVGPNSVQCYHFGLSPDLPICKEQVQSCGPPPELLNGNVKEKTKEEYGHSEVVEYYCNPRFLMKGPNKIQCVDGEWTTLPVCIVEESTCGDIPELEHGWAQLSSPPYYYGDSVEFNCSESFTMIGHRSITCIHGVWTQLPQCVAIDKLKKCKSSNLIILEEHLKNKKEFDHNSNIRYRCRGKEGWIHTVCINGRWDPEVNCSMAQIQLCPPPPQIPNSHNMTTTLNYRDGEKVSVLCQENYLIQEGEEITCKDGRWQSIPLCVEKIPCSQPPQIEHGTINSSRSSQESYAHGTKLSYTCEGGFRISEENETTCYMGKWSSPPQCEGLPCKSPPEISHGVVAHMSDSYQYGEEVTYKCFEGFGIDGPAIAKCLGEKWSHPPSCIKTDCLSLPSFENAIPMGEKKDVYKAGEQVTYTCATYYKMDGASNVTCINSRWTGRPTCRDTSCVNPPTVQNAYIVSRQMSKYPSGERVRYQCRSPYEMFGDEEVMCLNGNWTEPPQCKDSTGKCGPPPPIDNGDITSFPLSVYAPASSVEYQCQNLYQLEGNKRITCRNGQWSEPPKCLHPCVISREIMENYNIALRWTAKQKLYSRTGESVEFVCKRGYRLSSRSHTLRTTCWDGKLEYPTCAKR

[2] = target: complement factor H (FH), NT647-labeled full-length FH (human) (UniProt P08603); experiment: MST; FH at 2 nM held constant (NT647-labelled by the legend of Fig 1I), native apoE2 or native apoE4 titrated; n = 3; Kd fit model of normalized (ΔFnorm) values; 150 mM KCl, 25 mM HEPES pH 7.5, 0.01% Tween 20, 0.01% NaN3
Sequence of complement factor H (FH), NT647-labeled full-length FH (human) (P08603 19-1231): as above

Sequence of FH402H (P08603 19-1231 Y402H): as the sequence (P08603 19-1231) above, with Y384H counted along it
Sequence of FH402Y (P08603 19-1231): as the sequence (P08603 19-1231) above

| Substance | Kd [1] | Kd (NT647-FH5-7 402Y (human)) | also measured |
| --- | --- | --- | --- |
| FH1-4 (domain or fragment) | 999 nM | – | – |
| FH402H (from UniProt P08603 19-1231) (natural protein) | 496 nM | – | – |
| FH402Y (from UniProt P08603 19-1231) (natural protein) | 253 nM | – | – |
| apoE2 (from UniProt P02649 19-317) (natural protein) | – | 1000 nM | – |
| apoE3 (from UniProt P02649 19-317) (natural protein) | – | 1380 nM | – |
| apoE4 (from UniProt P02649 19-317) (natural protein) | – | 1940 nM | – |
| native apoE2 (from UniProt P02649 19-317) (natural protein) | – | – | Kd [2]: 2 nM |
| native apoE4 (from UniProt P02649 19-317) (natural protein) | – | – | Kd [2]: 300 nM |
